Article PMC5466061

B1: (GGGTTA)8 (structured_DNA)
DNA: TCGAGGGTTAGGGTTAGGGTTAGGGTTAGGGTTAGGGTTAGGGTTAGGGTTAC
B2: hTert 1-12 (structured_DNA)
DNA: AGGGGAGGGGCTGGGAGGGCCCGGAGGGGGCTGGGCCGGGGACCCGGGAGGGGTCGGGACGGGGCGGGGT

Target: nucleolin (NCL) (Homo sapiens, UniProt P19338 1-710)
Assay: EMSA

Chain of nucleolin (NCL) (P19338 whole entry): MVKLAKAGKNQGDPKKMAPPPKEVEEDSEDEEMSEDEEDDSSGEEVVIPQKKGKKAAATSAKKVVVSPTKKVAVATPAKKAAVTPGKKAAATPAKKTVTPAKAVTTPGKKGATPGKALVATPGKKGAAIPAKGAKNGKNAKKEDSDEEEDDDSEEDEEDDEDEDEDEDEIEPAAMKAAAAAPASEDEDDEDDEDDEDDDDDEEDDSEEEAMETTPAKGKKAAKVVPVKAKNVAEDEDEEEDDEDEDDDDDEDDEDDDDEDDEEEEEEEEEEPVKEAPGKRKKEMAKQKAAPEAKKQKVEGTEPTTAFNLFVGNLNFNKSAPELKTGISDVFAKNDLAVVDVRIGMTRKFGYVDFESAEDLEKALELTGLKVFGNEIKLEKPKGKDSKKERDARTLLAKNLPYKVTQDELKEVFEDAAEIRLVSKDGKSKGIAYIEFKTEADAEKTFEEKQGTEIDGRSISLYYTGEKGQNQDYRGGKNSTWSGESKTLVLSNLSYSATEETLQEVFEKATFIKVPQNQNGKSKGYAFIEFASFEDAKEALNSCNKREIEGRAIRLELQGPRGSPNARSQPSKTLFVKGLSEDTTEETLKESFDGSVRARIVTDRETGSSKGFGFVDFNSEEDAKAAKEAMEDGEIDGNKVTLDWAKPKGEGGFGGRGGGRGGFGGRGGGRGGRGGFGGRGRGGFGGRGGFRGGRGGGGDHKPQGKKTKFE

Binding result, binds:
GGGTTTGGGTTTGGGTTTGGGTTTGGG (structured_DNA) [(GGGTTT)5]
TGGGGAGGGTGGGGAGGGTGGGGAAGG (structured_DNA) [c-myc]
GGGTTAGGGTTAGGGTTAGGGTTAGGGTTAGGGTTA (structured_DNA) [(GGGTTA)6]
GGGTGGGTGGGTGGG (structured_DNA) [111]
B1
GGGTTAGGGTTAGGGTTAGGG (structured_DNA) [(GGGTTA)4]
GGGTTTTTTTTTGGGTTTGGGTTTGGG (structured_DNA) [n5M2]
GGGTTTGGGTTTGGGTTTTTTTTTGGG (structured_DNA) [n5M4]
B2
GGGTTTGGGTTTTTTTTTGGGTTTGGG (structured_DNA) [n5M3]
GGGTTTGGGTTTGGGTTTGGGTTTGGGTTTGGGTTTGGGTTTGGGTTT (structured_DNA) [(GGGTTT)8]
AGGGGGCTGGGCCGGGGACCCGGGAGGGGTCGGGACGGGGCGGGGT (structured_DNA) [hTert 5-12]
GGGTTTGGGTTTGGGTTTGGG (structured_DNA) [(GGGTTT)4 = 333]
AGGGGCGGGCGCGGGAGGAAGGGGGCGGGAGCGGGGCTG (structured_DNA) [bcl-2]
GGGTTTGGGTTTGGGTTTGGGTTTGGGTTTGGGTTT (structured_DNA) [(GGGTTT)6]
